Results as given in patent US20250346673A1 (DUALITY BIOLOGICS SUZHOU, published 2025).

T1: cynomolgus BDCA2 (cynomolgus monkey, UniProt A0A2K5UWP4 1-212)
T1 construct: whole, on cells; also called Cyno BDCA2; cynoBDCA2
T1 sequence: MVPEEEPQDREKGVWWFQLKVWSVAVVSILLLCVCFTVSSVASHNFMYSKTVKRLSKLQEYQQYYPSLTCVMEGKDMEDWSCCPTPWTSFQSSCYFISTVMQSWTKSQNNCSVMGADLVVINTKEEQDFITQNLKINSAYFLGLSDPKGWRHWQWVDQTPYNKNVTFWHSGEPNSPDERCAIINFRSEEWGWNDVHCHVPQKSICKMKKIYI

T2: human BDCA2 (human, UniProt Q8WTT0 1-213)
T2 construct: whole, on cells; also called hBDCA2; Blood dendritic cell antigen 2
T2 sequence (looked up): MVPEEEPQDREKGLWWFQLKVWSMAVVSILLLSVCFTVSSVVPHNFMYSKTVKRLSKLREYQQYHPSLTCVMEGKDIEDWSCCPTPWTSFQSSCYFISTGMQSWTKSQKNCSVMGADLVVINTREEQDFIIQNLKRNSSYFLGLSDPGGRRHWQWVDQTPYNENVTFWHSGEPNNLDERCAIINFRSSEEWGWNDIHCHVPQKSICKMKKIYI

T3: Recombinant Human BDCA2 (human, UniProt Q8WTT0 45-213, limits assumed)
T3 construct: also called hBDCA2 (SPR analyte); human BDCA2 antigen
T3 sequence (looked up): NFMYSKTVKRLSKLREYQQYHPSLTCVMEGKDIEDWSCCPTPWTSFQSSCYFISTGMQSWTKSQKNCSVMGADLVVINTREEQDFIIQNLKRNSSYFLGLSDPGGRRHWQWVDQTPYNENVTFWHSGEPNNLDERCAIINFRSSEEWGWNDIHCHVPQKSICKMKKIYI


How the values were obtained:
cynomolgus BDCA2 [1] = target: T1, cynomolgus BDCA2; experiment: FACS, 293F-cynoBDCA2 cells
human BDCA2 [2] = target: T2, human BDCA2; experiment: FACS, CHOK1-humanBDCA2 cells
Method: (§1) The cells were recovered and resuspended to 2×10⁶/mL with FACS buffer (PBS+2% FBS). The resuspended cells were added to 3799 cell plates at 100 μL/well, and the supernatant was discarded after centrifugation at 300 g. […] The cells were incubated at 4° C. for 1 h. The incubated cells were centrifuged at […] for 5 min and washed twice with FACS buffer. 100 μL Goat anti-Human IgG (H+L) Cross-Adsorbed Secondary Antibody, Alexa Fluor 488 (Sigma, A11013; 1:1000) secondary antibody was added, washed twice with FACS buffer after incubation at 4° C. for 1 h. The cells were resuspended with PBS, then the fluorescence signal of antibodies bound to cell surface was analyzed with FACS (BD FACS CantoTM II) instrument and curves were fitted with GraphPad Prism6 to calculate EC₅₀ values for antibodies binding to BDCA2 antigen.

human BDCA2 [3] = target: T2, human BDCA2; experiment: FACS on CHOK1-hBDCA2 cells; EC50 table under the plot, unit from the x axis (nM)
Method: (§2) The cells were recovered and resuspended to 2×10⁶/mL with FACS buffer (PBS+2% FBS). The cells were added to 3799 cell plates (Corning) at 100 μL/well, and the supernatant was discarded after centrifugation at 300 g. The antibodies were serially diluted with FACS buffer (Id.), the diluted antibodies were added to centrifuged cells and the cells were resuspended. The cells were incubated at 4° C. for 1 h. The incubated cells were centrifuged at 300 g for 5 min and washed twice with FACS buffer. 100 μL […] anti-Human IgG (H+L) Cross-Adsorbed Secondary Antibody-Alexa Fluor 488 (Sigma, A11013; 1:1000) secondary antibody was added, washed twice with FACS buffer after incubation at 4° C. for 1 h, resuspended with PBS, analyzed with FACS (BD FACS CantoTM II) instrument and curve fitted with GraphPad Prism6, and EC₅₀ values were calculated.

human BDCA2 [4] = target: T2, human BDCA2; experiment: cell-based or functional assay
human BDCA2 [5] = target: T2, human BDCA2; experiment: cell-based or functional assay; remark: listed apart in the source
cynomolgus BDCA2 [6] = target: T1, cynomolgus BDCA2; experiment: FACS, 293F-cynoBDCA2 cells; remark: listed apart in the source
Method: as §1

human BDCA2 [7] = target: T2, human BDCA2; experiment: FACS, CHOK1-humanBDCA2 cells; remark: listed apart in the source
Method: as §1

Recombinant Human BDCA2 = target: T3, Recombinant Human BDCA2; experiment: SPR (BIAcore), antibody captured by anti-human IgG (Fc), hBDCA2 as analyte, 1:1 model
Method: Then 1 M ethanolamine was injected at 10 μL/min flow rate for 420 seconds, and the excess active carboxyl groups on chip were blocked. The humanized antibodies were injected into a detection channel flow cell at flow rate of 10 μL/min for 60 s for capture after diluting to 1 μg/mL using running buffer. […] The sample hBDCA2 to be tested of each concentration gradient was injected into the detection channel at 30 μL/min flow rate, two samples at 0 concentration were used to remove background signal. The binding and dissociation times between antigen and antibody were 180 and 400 sec, respectively. An analysis of data was performed using Biacore Insight Evaluation Software (Version 2.0. 15.12933). A 1:1 binding model was selected for curve fitting and kinetic parameters were calculated after subtraction of signal of the reference channel (flow cell 1) and at 0 concentration.

human BDCA2 [8] = target: T2, human BDCA2; experiment: FACS on CHOK1-hBDCA2 cells; EC50 table beside the plot, unit from the x axis (nM) [continued) c.]
Method: as §2

| Binder | binding result (cynomolgus BDCA2 [1]) | EC50 (human BDCA2 [2]) [nM] | EC50 (human BDCA2 [3]) [nM] | other results |
| --- | --- | --- | --- | --- |
| Hu005-07 (antibody, IgG1, V domains shown, Humanized IgG1; also called hu005-07(BM5)) VH: QVQLQESGPGLVKPSETLSLTCTVSGGSITNYGVHWIRQPPGKGLEWIGVIWSGESTDYDAAFISRVTISKDNSKNQVSLKLSSVTAADTAVYYCARRRSHYYGYVMDYWGQGTTVTVSS VL: DIVLTQSPASLAVSPGQRATITCKASQSIDYDAIGYLNWYQHKPGQPPKLLIYAASNLESGVPARFSGSGSGTDFTLTINPVEANDTANYYCQQSNEDPPTFGQGTKLEIK | binds | 2 |  |  |
| Hu005-24 (antibody, IgG1, V domains shown, Humanized IgG1; also called hu005-24(BM6)) VH: QVQLQQSGPGLVKPSETLSLTCTVSGGSLTNYGVHWIRQPPGKGLEWIGVIWSGESTDYDAAFISRVTISKDNSKNQVSLKLSSVTAADTAVYYCARRRSHYYGYVMDYWGQGTTVTVSS VL: DIQMTQSPSSLSASVGDRVTITCKASQSIDYDAIGYLNWYQQKPGKAPKLLIYAASNLESGVPSRFSGSGSGTDFTLTISSLQPEDFATYYCQQSNEDPPTFGQGTKLEIK | binds | 1.9 |  |  |
| Hu005-04 (antibody, human IgG1, kappa, V domains shown, Humanized IgG1; also called hu005-04(BM6)) VH: QVQLQQSGPGLVKPSETLSLTCTVSGGSLTNYGVHWIRQPPGKGLEWIGVIWSGESTDYDAAFISRVTISKDNSKNQVSLKLSSVTAADTAVYYCARRRSHYYGYVMDYWGQGTTVTVSS VL: DIVLTQSPASLAVSPGQRATITCKASQSIDYDAIGYLNWYQQKPGQPPKLLIYAASNLESGVPARFSGSGSGTDFTLTINPVEANDTANYYCQQSNEDPPTFGQGTKLEIKR | binds | 2.3 |  |  |
| Hu005-03 (antibody, IgG1, V domains shown, Humanized IgG1; also called hu005-03(BM4)) VH: QVQLQESGPGLVKPSETLSLTCTVSGGSITNYGVHWIRQPPGKGLEWIGVIWSGESTDYDAAFISRVTISKDNSKNQVSLKLSSVTAADTAVYYCARRRSHYYGYVMDYWGQGTTVTVSS VL: DIVLTQSPASLAVSPGQRATITCKASQSIDYDAIGYLNWYQQKPGQPPKLLIYAASNLESGVPARFSGSGSGTDFTLTINPVEANDTANYYCQQSNEDPPTFGQGTKLEIK | binds | 2.1 |  |  |
| mab033c (antibody, V domains shown) VH: EVQMVESGGDLVKPGDSLKLSCAASGFTFRSYGMSWVRQTPDKRLEWVATISSGDSYTYYPDSVKGRFTISRDNAKNTLYLQMSSLKSEDTALYYCARQIYYDYAYYFDFWGQGTTLTVSS VL: DIVLTQSPASLAVSLGQRATISCRASESVSFRTSHLMHWYQQKPGQPPKLLIYGASNLESGVPARFSGSGSETDFTLNIHPVEEEDAAAYFCQQSIEDPPTFGGGTKLEIK |  |  |  | IC50, inhibition of IFNα secretion, CpG-A stimulated human PBMC (human BDCA2 [4]): 8.33 pM; EC50 (nM), inhibition of CpG-A stimulated IFNα release from human PBMC (human BDCA2 [5]): 0.02 nM; EC50 (cynomolgus BDCA2 [6]): 0.56 nM; EC50 (human BDCA2 [7]): 0.26 nM; Kd (Recombinant Human BDCA2): 0.11 nM; koff (Recombinant Human BDCA2): 7.67e-05 s⁻¹; kon (Recombinant Human BDCA2): 698000 M⁻¹ s⁻¹; EC50 (human BDCA2 [8]): 0.277 nM |

Continued, in another order:

| binding result (cynomolgus BDCA2 [1]) | EC50 (human BDCA2 [2]) [nM] | EC50 (human BDCA2 [3]) [nM] | Binder | other results |
| --- | --- | --- | --- | --- |
| binds | 2.3 |  | Hu005-08 (antibody, IgG1, V domains shown, Humanized IgG1; also called hu005-08(BM7)) VH: QVQLQQSGPGLVKPSETLSLTCTVSGGSLTNYGVHWIRQPPGKGLEWIGVIWSGESTDYDAAFISRVTISKDNSKNQVSLKLSSVTAADTAVYYCARRRSHYYGYVMDYWGQGTTVTVSS VL: DIVLTQSPASLAVSPGQRATITCKASQSIDYDAIGYLNWYQHKPGQPPKLLIYAASNLESGVPARFSGSGSGTDFTLTINPVEANDTANYYCQQSNEDPPTFGQGTKLEIK |  |
|  |  | 0.977 | mab016c (antibody, V domains shown) VH: QVQLKQSGPGLVQPSQSLSITCTVSGFSLTSYGVHWVRQSPGKGLEWLGVIWSGESTDYDAAFISRLSISKDNSKSQVFFRMNSLQADDSAIYYCARRRSHYYGYVMDYWGQGTSVTVSS VL: DIVLTQSPASLAVSLGQRATISCKASQSVDYDGVGYLNWYQHKPGQPPKLLIYAASNLESGIPARFSGSGSGTDFTLNIHPVEEEDAATYYCQQSNEDPPTFGSGTKLEIK |  |
|  | 2.2 | 0.964 | mab005c (antibody, V domains shown) VH: QVQLKQSGPGLVQPSQSLSITCTVSGFSLTNYGVHWVRQSPGKGLEWLGVIWSGESTDYDAAFISRLSISKDNSKSQVFFKMNSLQADDSAIYYCARRRSHYYGYVMDYWGQGTSVTVSS VL: DIVLTQSPASLAVSLGQRATISCKASQSIDYDGIGYLNWYQHKPGQPPKLLIYAASNLESGIPARFSGSGSGTDFTLNIHPVEEEDAATYYCQQSNEDPPTFGSGTKLEIK | IC50, inhibition of IFNα secretion, CpG-A stimulated human PBMC (human BDCA2 [4]): 8.36 pM |
|  |  | 1.61 | mab002c (antibody, V domains shown) VH: QIQLVQSGPELKKPGETVKISCRASGYSFTDYSMHWVKQAPGKGLKWVGWINTETGEPTYADDFKGRFALSLETSATSAYLQINNLKNEDTATYFCARGGDGFPYWYFNVWGAGTTVTVSS VL: DIVLTQSPTSLAVSLGQRTNISCRASQSVSTSSNSYIHWYQQKPGQPPKLLIKYASNLDSGVPARFSGSGSGTDFTLNIHPVEEEDTSTYYCQHSWEIPFTFGSGTKLEIK |  |
